The results in this text go back to patent publication US20250361322A1 (ICONIC THERAPEUTICS, published 2025).

Test [1] deals with T1, full-length mouse TF with a C-terminal FLAG tag on Flp-In-CHO cells (mouse, UniProt P20352 29-294).
T1 construct: also called CHO-mTF; mouse TF-positive CHO cells
Nature of the test: flow cytometry, antibody titration on CHO cells expressing mouse TF.
Protocol: (§1) After 2 washes, dead cells were labeled with TO-PRO-3 Iodide (ThermoFisher Scientific) and samples were analyzed on a CytoFLEX flow cytometer (Beckman Coulter, Brea, CA, USA) or Novocyte flow cytometer (ACEA Biosciences, San Diego, CA, USA). The median fluorescence intensities (MFIs) at each dilution were plotted and cell EC₅₀'s were derived using a 4-parameter binding model in Prism (GraphPad, La Jolla, CA, USA).

Test [2] has as its target T2, human Tissue Factor on human TF-positive cells (human, UniProt P13726 33-295).
T2 construct: also called hTF; CD142
Nature of the test: flow cytometry, antibody titration on HCT-116 cells (endogenous human TF), 4-parameter fit of MFI. A general note: Flow cytometry measures light scatter and fluorescence of single cells or particles in a stream.
Protocol: as §1

Test [3] has as its target T3, cynomolgus monkey TF ECD-His6 (cynomolgus monkey (Macaca fascicularis)).
T3 construct: Expi293-derived; also called TF-His; cTF
T3 chain: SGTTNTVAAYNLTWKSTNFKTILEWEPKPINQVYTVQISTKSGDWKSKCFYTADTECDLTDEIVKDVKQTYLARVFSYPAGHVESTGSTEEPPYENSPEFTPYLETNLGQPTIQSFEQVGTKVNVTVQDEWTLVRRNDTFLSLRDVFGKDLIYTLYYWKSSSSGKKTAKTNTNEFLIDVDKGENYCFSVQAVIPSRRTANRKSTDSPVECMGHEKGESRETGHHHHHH
Nature of the test: BLI (ForteBio Octet). In general terms: BLI is a label-free optical method that tracks binding on a fibre tip over time.
Protocol: (§2) Kinetic measurements for the anti-TF antibodies were conducted on an Octet QK384 (Pall ForteBio, Fremont, CA, USA) or a Biacore (GE Healthcare Bio-Sciences).
(§3) Briefly, ForteBio affinity measurements were performed by loading IgGs on-line onto AHC sensors. Sensors were equilibrated off-line in assay buffer for 30 min and then monitored on-line for 60 seconds for baseline establishment. Sensors with loaded IgGs were exposed to 100 nM antigen (human, cynomolgus, or mouse TF) for 3 min, afterwards they were transferred to assay buffer for 3 min for off-rate measurement. Alternatively, binding measurements were obtained by loading biotinylated TF monomer on SA sensors followed by exposure to 100 nM antibody Fab in solution. Kinetic data was analyzed and fitted using a 1:1 Langmuir binding model and the KD was calculated by dividing the koff by the kₒₙ.

Another test concerns the target T4, human TF ECD-His6 (human, UniProt P13726 33-251).
T4 construct: Expi293-derived; Biacore used TF-His; also called TF-His; hTF
The test is described as follows: BLI (ForteBio Octet).

In test [4] the target is T1, full-length mouse TF with a C-terminal …. The test is described as follows: flow cytometry on CHO cells expressing mouse TF, MFI at 250 nM antibody.
Protocol: as §1
Test [5] deals with T2, human Tissue Factor on human …. The test is described as follows: competition flow cytometry on MDA-MB-231 cells: antibody titration first, then 20 nM FVII-Fc-Alexa488 as the blocked ligand.
Protocol: After another 1 hr incubation on ice, cells were washed, stained with a viability dye, and analyzed by flow cytometry. The Alexa488 fluorescence data from viable cells was summarized using median fluorescence intensity.
A further test concerns the target T5, rabbit TF ECD-His (rabbit (Oryctolagus cuniculus), UniProt P24055 33-250).
T5 construct: also called rabbit TF-His
The test is described as follows: SPR (Biacore), antibody captured by anti-human IgG. Background: In SPR one partner is held on a chip, and binding of the other changes the refractive index at the surface.

For a further test, the target named is T6, pig TF ECD-His (pig (Sus scrofa)).
T6 construct: also called pig TF-His; pTF
T6 chain: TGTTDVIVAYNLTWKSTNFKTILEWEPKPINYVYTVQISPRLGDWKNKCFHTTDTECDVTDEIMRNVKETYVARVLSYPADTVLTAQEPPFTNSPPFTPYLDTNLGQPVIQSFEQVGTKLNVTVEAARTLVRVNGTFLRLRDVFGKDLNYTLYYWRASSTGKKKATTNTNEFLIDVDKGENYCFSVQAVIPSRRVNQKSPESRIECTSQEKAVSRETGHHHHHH
Nature of the test: SPR (Biacore), antibody captured by anti-human IgG.

For test [6], the target named is T7, pig TF-His (Pig (Sus scrofa)).
T7 construct: also called pig TF ECD-His; pTF
T7 chain: T6 chain
Nature of the test: Biacore SPR, antibody captured by anti-human IgG on CM5, pig TF-His titrated.
Protocol: (§4) The ability of certain antibodies was tested for binding to pig TF. For pig TF Biacore-based measurements, a given anti-TF antibody was captured by an anti-human IgG antibody covalently coupled to a CM5 chip (GE Healthcare Bio-Sciences). Association between the anti-TF antibodies and a five-point three-fold titration of pig TF-His starting at 100 nM was measured for 180 to 240 sec. Subsequently, dissociation between the anti-TF antibody and TF-His was measured for 1800 sec. Kinetic data was analyzed and fitted globally using a 1:1 binding model.

Test [7] addresses T8, rTF (rat TF) (rat, UniProt P42533 29-252). The test is described as follows: live cell staining, flow cytometry, transfected HEK293.
Protocol: (§5) To establish binding of the anti-human TF antibodies to the various TF constructs, HEK293 cells were transfected with a DNA plasmid that co-expresses the TF construct and a green fluorescent protein marker. […] Upon acquisition of 80,000 live events on a flow cytometer, live cells marked with the fluorescent marker were analyzed for the degree of staining by the anti-TF antibody.
The next test deals with r141-194_h (rat/human chimera, UniProt P42533 29-252). The description is as above.
In a further test the target is T9, hTF_N171H_T197K (human, UniProt P13726 33-251).
T9 chain: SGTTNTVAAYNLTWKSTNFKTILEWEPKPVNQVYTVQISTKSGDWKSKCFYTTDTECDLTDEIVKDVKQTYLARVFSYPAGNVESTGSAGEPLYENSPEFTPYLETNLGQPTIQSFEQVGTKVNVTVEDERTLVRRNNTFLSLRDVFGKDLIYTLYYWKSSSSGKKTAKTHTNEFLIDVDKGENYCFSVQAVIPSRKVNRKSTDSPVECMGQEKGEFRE
Described as above.

Test [8] addresses T10, hTF (human Tissue Factor construct) (human, UniProt P13726 33-251).
T10 construct: also called human TF
The description is as above.
Protocol: as §5

For another test, the target named is h78-107_r.v2 (human/rat chimera). The test is described as above.
For test [9], the target named is T8, rTF (rat TF). The test is described as above. The source holds these as a separate data set.
Protocol: as §5
The target in the next test is T11, h1-77_r (human/rat chimera).
T11 construct: Human TF ECD with residues 1-77 replaced by rat segment
Described as above.

The next test addresses T12, h1-107_r (human/rat chimera).
T12 chain: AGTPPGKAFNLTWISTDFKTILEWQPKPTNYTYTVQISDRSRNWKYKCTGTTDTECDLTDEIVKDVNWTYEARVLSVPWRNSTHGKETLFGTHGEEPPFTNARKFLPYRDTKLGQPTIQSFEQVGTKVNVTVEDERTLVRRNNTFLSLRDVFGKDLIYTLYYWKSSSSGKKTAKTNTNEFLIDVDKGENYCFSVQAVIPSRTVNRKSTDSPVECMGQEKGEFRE
The description is as above.

Test [10] addresses T13, pig TF ECD-His (TF-His) protein (pig (Sus scrofa)).
T13 construct: also called pig TF-His; pTF
T13 chain: T6 chain
The test is described as follows: Biacore; antibody captured by anti-human IgG on CM5 chip, titration of pig TF-His.
Protocol: as §4

For test [11], the target named is T14, rabbit TF ECD-His (TF-His) protein (rabbit (Oryctolagus cuniculus), UniProt P24055 33-250).
T14 construct: also called rabbit TF-His
T14 sequence (P24055 other isoform, or with tags, fused parts or gaps): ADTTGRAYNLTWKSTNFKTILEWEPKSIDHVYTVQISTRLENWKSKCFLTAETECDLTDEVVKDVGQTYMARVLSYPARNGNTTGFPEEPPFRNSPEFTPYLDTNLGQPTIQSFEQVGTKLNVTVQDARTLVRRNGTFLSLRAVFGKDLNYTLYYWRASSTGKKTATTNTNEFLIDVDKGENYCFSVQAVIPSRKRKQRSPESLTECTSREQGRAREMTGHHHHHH
The test is described as follows: Biacore; antibody captured by anti-human IgG on CM5 chip, titration of rabbit TF-His.
Protocol: The ability of certain antibodies was tested for binding to rabbit TF. For rabbit TF Biacore-based measurements, a given anti-TF antibody was captured by an anti-human IgG antibody covalently coupled to a CM5 chip (GE Healthcare Bio-Sciences). Association between the anti-TF antibodies and a five-point three-fold titration of rabbit TF-His starting at 100 nM was measured for 180 to 240 sec. Subsequently, dissociation between the anti-TF antibody and TF-His was measured for 1800 sec. Kinetic data was analyzed and fitted globally using a 1:1 binding model.

For test [12], the target named is T7, pig TF-His. Nature of the test: Biacore SPR, antibody captured by anti-human IgG on CM5, pig TF-His titrated from 100 nM, 1:1 fit.
Protocol: as §4

Changes are numbered by the printed parent chain. Read-outs that look alike come from different tables or passages of the source.

T5 sequence (P24055 other isoform, or with tags, fused parts or gaps): as above
Protocol for h1-107_r: as §5
Protocol for h1-77_r: as §5
Protocol for h78-107_r.v2: as §5
Protocol for hTF_N171H_T197K: as §5
Protocol for human TF ECD-His6: as §2, §3
Protocol for r141-194_h: as §5

B1: 29D (antibody, human IgG1, V domains shown)
VH: QVQLVESGGGVVQPGRSLRLSCAASGFTFHSRGMHWVRQAPGKGLEWVAVITYDGINKYYADSVEGRFTISRDNSKNTLYLQMNSLRAEDTAVYYCARDGVYYGVYDYWGQGTLVTVSS
VL: not shown
notes: Human IgG1; also called antibody designated 29D
What is called EC50 is the concentration that produces a half-maximal response. The term Kd denotes the constant that tells how readily two partners part at equilibrium. Regarding B1, the values for the binding result (in [1]; with rabbit TF ECD-His; with pig TF ECD-His) were “no binding (tested: 250 nM)”, “no binding (tested: titration starting at 100 nM)” and “no binding (tested: titration starting at 100 nM)”, respectively. The EC50 in [2] came out at 0.237 nM. Further, the Kd in test [3] worked out at 12 nM; in the test with human TF ECD-His6, 3.3 nM. Moreover, the “MFI at 250 nM” value in test [4] stood at 30000. The “IC50 (read off the curve)” value in test [5] is ~2 nM.

B2: 29D (antibody, V domains shown)
VH: B1 VH
VL: not shown
notes: Human IgG (captured by anti-human IgG in the Biacore assay); also called antibody designated 29D
For B2, the binding result in the test with pig TF-His [6] was “no binding”.

B3: 29E (antibody, V domains shown)
VH: B1 VH with H30R, R32Y
VL: not shown
notes: Human IgG (detected with anti-human IgG-Fc)
For the molecule B3, the “percent antibody binding to TF construct relative to hTF” value is 0% in the test with rTF (rat TF) [7]; 0% with r141-194_h; 98% in the test with hTF_N171H_T197K; 100% in [8]; 0% with h78-107_r.v2; 0% in the test with rTF (rat TF) [9]. Further, the “percent antibody binding to TF construct relative to hTF” value with h1-77_r and with h1-107_r was 0% each time.

B4: anti-TF antibody 29D (antibody, human IgG1, V domains shown)
VH: B1 VH
VL: not shown
notes: Human IgG1
Consider B4, for which the binding result in test [10] and in test [11] was “no binding” throughout.

B5: 1G (antibody, human IgG1, V domains shown)
VH: EVQLLESGGGLVQPGGSLRLSCAASGFTFSSYAMAWVRQAPGKGLEWVSAISGSGGLTYYADSVKGRFTISRDNSKNTLYLQMNSLRAEDTAVYYCAKAPYGYYMDVWGKGTTVTVSS
VL: not shown
notes: Human IgG1; also called antibody designated 1G
For B5, the binding result in [1] is recorded as “no binding (tested: 250 nM)”; with rabbit TF ECD-His it was “no binding (tested: titration starting at 100 nM)”; with pig TF ECD-His it was “no binding (tested: titration starting at 100 nM)”. Also, in [2], the response was half-maximal at 0.058 nM (EC50). In addition, the Kd in test [3] is 2.7 nM; in the test with human TF ECD-His6, 2.2 nM. Moreover, the “MFI at 250 nM” value in [4] was found to be 4300. Besides, the “IC50 (read off the curve)” value in test [5] is ~1 nM.

B6: anti-TF antibody 1G (antibody, human IgG1, V domains shown)
VH: B5 VH
VL: not shown
notes: Human IgG1
With B6, the binding result in [10] and in [11] was “no binding” in each case.

B7: 1F (antibody, V domains shown)
VH: B5 VH with S31D, A35G, A50T
VL: not shown
notes: as for B3
In the case of B7, the “percent antibody binding to TF construct relative to hTF” value with rTF (rat TF) [7] turned out to be 0%; with r141-194_h it was 0%; in the test with hTF_N171H_T197K, 83%; in [8], 100%; with h78-107_r.v2 it was 0%; with rTF (rat TF) [9], 0%. Moreover, the “percent antibody binding to TF construct relative to hTF” value with h1-77_r and in the test with h1-107_r was 0% each time.

B8: 1G (antibody, V domains shown)
VH: B5 VH
VL: not shown
notes: Human IgG (captured by anti-human IgG in the Biacore assay); also called antibody designated 1G
As to B8, the binding result with pig TF-His [6] is “no binding”.

B9: 43D8 (antibody, V domains shown)
VH: QVQLQQWGAGLLKPSETLSLTCAVYGGSLSGYYWSWIRQPPGKGLEWIGEIGASGSTRYNPSLKSRVTISVDTSKNQFSLKLSSVTAADTAVYYCARDTPYYYEGGYYYYMDVWGKGTTVTVSS
VL: EIVLTQSPGTLSLSPGERATLSCRASQSVSSSFLAWYQQKPGQAPRLLIYGAYSRATGIPDRFSGSGSGTDFTLTISRLEPEDFAVYYCQQAGVVPYTFGGGTKVEIK
notes: Human IgG (captured by anti-human IgG in the Biacore assay); also called antibody designated 43D8
On to B9, for which, in the test with pig TF-His [12], the Kd came to 12.9 nM.

B10: 25G9 (antibody, V domains shown)
VH: QVQLVQSGAEVKKPGASVKVSCKASGYTFRSYGISWVRQAPGQGLEWMGWVAPYSGNTNYAQKLQGRVTMTTDTSTSTAYMELRSLRSDDTAVYYCARDAGTYSPYGYGMDVWGQGTTVTVSS
VL: DIQMTQSPSTLSASVGDRVTITCQASQSIDSWLAWYQQKPGKAPKLLIYSASYLESGVPSRFSGSGSGTEFTLTISSLQPDDFATYYCQRFQSLPPFTFGGGTKVEIK
notes: Human IgG (captured by anti-human IgG in the Biacore assay); also called antibody designated 25G9
B10 came in with a Kd with pig TF-His [12] of 3.31 nM.
